# Data published in the DeepSol protein solubility set.
# Test: soluble on expression in E. coli; label from the status in PepcDB or PDB records
row,Sequence,soluble on expression in E. coli
1,MGHHHHHHSHPSSPDSLHYLSPTGVNEYLMALWSVGSVVQDYDSDKLFPAFGFGAQVPPDWQVSHEFALNFNPSNPYCAGIQGIVDAYRQALPQVRLYGPTNFAPIINHVARFAAQAAHQGTASQYFMLLLLTDGAVTDVEATREAVVRASNLPMSVIIVGVGGADFEAMEQLDADGGPLHTRSGQAAARDIVQFVPYRRFQNAPREALAQTVLAEVPTQLVSYFRAQGWAPLKPLPP,not soluble
2,MVDKGVKIKVDYIGKLESGDVFDTSIEEVAKEAGIYAPDREYEPLEFVVGEGQLIQGFEEAVLDMEVGDEKTVKIPAEKAYGNRNEMLIQKIPRDAFKEADFEPEEGMVILAEGIPATITEVTDNEVTLDFNHELAGKDLVFTIKIIEVVE,soluble
3,MIPLVAPRSVIERVEAICREAGGILRVAPYRRLQVGLITTGSEVYKGRIKDAFGPVVRAKIASYGSEVALEKVVPDDAAAIHDAIEEMLAAGMQMVVLTGGMSVDPDDVTPDGIRRSGAEVVTYGAPVLPGAMFMLAYRGDVPIMGLPGCVMYYRATVFDLVLPRILVGERLEHHHHHH,not soluble
4,MGSDKIHHHHHHMDFAAIDKQISALEACIDSTVEVTPGEQLSVGVDLGTAYIVVVVLNAAGSPVACAMEFAQVIKDGLVVDYVGATRIVRRLVQQLEERLGRQLTHAAIAVPPGTGHKDSNTHRHVVEGAGLEVTAILDEPTAANAVLGVQNGVIVDIGGGTTGLSVIEDGKVTYVADEPTGGTHVSLVLAGSYRISFTEAEELKKDQDRQREILPVVRPVIQKMASIVNRHIEGRDISAIYLVGGTCCLKDFETVFEKETGRPVYKPANPFLVTPLGIALNCNA,not soluble
5,MSMSSTVIKFRAGVCEYNEDSRLCTPIPVQGEIEIKPNEEEELGFWDFEWRPTEKPVGRELDPISLILIPGETMWVPIKSSKSGRIFALVFSSNERYFFWLQEKNSGNLPLNELSAKDKEIYNKMIGVLNNSSESDEEESNDEKQKAQDVDVSMQD,soluble
6,MGSDKIHHHHHHMGLNLSKGDMYKFVNYTWNPIKGKCLHDCSYCYMKQINPNANPPRLAEYELNTDLGCGRSIFIGSSTDMFAEDIPSEWIARVLDYCYQNRNMLLPNAYLLQSKNPKRFLEFINHPIMERVVFCTTIETNRFYPEIMNKAPRIDERVEAMEEIARLGRPTMVTAEPLMQFDHEEMVSFIRRCSPKLVNIGRNSCRRIVLPEPTQEEVQQLIAELKSLKSFTKVNVKDNALEWCK,not soluble
7,MLCTVTEKLYYDDMYMKEFQAEVVSVDSNGIVLDRTAFYPTGGGQPNDTGIIVNDDKTYRVVDVQKHGDDVVHILESVDGLKAGDRIYGKIDWERRYAHMRYHTAIHILDGIVSAKHNSEALLTGGQIYEDRSRIDMNIENFTKEFVDQIIQEANEFISEGHRVYAENISREEAMKRPNLARTEPGRKLIESLPVVRIIVIEGLDEQSDGGTHVANTREVGKIVLRKIENKGRKNKRIEFELSPA,not soluble
8,KMPISAGVTVERKLNDYLGIETGLLYSNLRSEGQHLHYLGIPLKANITLMDTKKIDLYATVGGVADKCIAGAPDNSFKEEPIQLAVTAGIGITYKINDRLAVFAEPG,not soluble
9,KVISPTYQASTQVLVHESDGEENSNLSDIQRNLQYSSTFQSIMKSTALMEEVKAELHLSESASSLKGKVVTSSENESEIINVAVQDHDPAKAAEIANTLVNKFEKEVDERMNVQGVHILSEAKASESPMIKPARLRNM,not soluble
10,VIRRSSLSSTESEIRMDATTVSTTDDIWSPSWDDPFEPTTDHDDEFAELTDALRAVQEAVTRSRPTPEAAGRAARTLRDLAARLAAFEVGEDEQISGRRWDLAGRGQTLTPALHLDEVTENRARGHVVVGRFHSGRYAMNGGVTPLIFDEILARLANSCGRPWARTAYLHVNYRAPAPLDVELRVEAEFAGQDGRKRFMRGAMYHGDVLVADVEGLWIELKPEQTQNVSLAVGWGAEENS,not soluble
11,GPGSMPKSKRATIVPLTKTRSKTREEKDELINKIRDALDDYTDVYTFELSNIRTNILQQIREERRNDSRLFLGNNKLLMIALGRDDSSSQRPNLHKLSKYLTGSCGLLFTNLPHQDVKEYFKGVSADVFARTGQVATCPLLLRTGPLAQFPHSMFDHLSRLGLPIKLDKGVIVLLRDTTVCEVGDTLTAEAAQLLKLFGIQSAEFKLELTAHWAKGVVKRMSKKKKEEEN,soluble
12,MVNLELIEVQEGKAKILIPKAESIYDSPVFYNPRMALNRDIVVVLLNILNPKIVLDALSATGIRGIRFALETPAEEVWLNDISEDAYELMKRNVMLNFDGELRESKGRAILKGEKTIVINHDDANRLMAERHRYFHFIDLDPFGSPMEFLDTALRSAKRRGILGVTATDGAPLCGAHPRACLRKYLAVPLRGELCHEVGTRILVGVIARYAAKYDLGIDVILAYYKDHYFRAFVKLKDGARKGDETLEKLGYIYFDDKTGKFELEQGFLPTRPNAYGPVWLGPLKDEKIVSKMVKEAESLSLARKKQALKLLKMIDQELDIPLFYDTHAIGRRLKIETKKVEEIISALREQGYEATRTHFSPTGIKTSAPYEVFIETIKRI,soluble
13,MGSDKIHHHHHHMSEKNQQSADLMARQYFLHLGAHRTGSSSFQLCLHENRAALANAGYGVAFPARDGIRAGQLALRLPQPRHDAEAETRMAETARQHLTQDIAPAPDQKVLLSEENILGSMSHFQQALFYPASAKRLRALRQAMEGPAAAVLLVVRDYGPFFRSCIRKRMEETIVTDFEGAVSAYLAMDRGWLEVLREVRDILEPAKLIVARHEDRPKRVDLLRELAPDLAQVALMQPSTSLNISATDRALSALQARYATGEKLSRKAWRATLAEWRDDATPMGLTEFTPRELRAFSMRYERDLSDIAKEPGLTLI,not soluble
14,MADEVTIGFRFYPTEEELVSFYLRNQLEGRSDDSMHRVIPVLDVFEVEPSHLPNVAGVRCRGDAEQWFFFVPRQEREARGGRPSRTTGSGYWKATGSPGPVFSKDNKMIGAKKTMVFYTGKAPTGRKTKWKMNEYHAVDETVNASTIPKLRREFSLCRVYITTGSSRAFDRRPEGVLQTERMLTSDVAVAETSFRVESSLETSISGGEHIDVSMNTEFVDGLSEPMWDWEQLTWP,soluble
15,MDMMMDKQEIKREYIEQEGHFETKSRRRELHIEILSEQTKSDIRNSKLVVMN,soluble
16,MPSSSPSMDESRRSAVPPKEPAGRICTVCSDRANGYNFGVLTCESCKAFFRRNASKHKEIKCPFSDSCQITSASRKFCQACRLNKCFAVGMNSEWLNDLKPKSSIVSGKFKRKKPDMKNNLKVEVDDTEEDLENDDEEQISVPKALLEKLINKANEKSKDRCTCKCQCGFYPITQRLTAYEPKDTTAVNSPQDISFSHHLHHSDSFYSSSTSTLSPMSVISCAPSSHDSSGYNTSQLVTQSPTNYTVSPASIPSSITELSPQMPSQYPPMLSPFQFGVMAQMAAPANFLNFPPMPERTWTPIQAVSTVPVTETLPPNLLEQIHSKIDKYIGVLNEDEITLLEELHVQNEPLNAPLIQWHNPKSIDGVFRIIEEALRRIVNMACQLSLFRELHVDDRKNLLKSGFGELLIVRGLMAYDKSDNSWNHSFGVRGKMEVKVEVLKNPKLEEHYKAHMNLLSTFGEDVRNNEHLMLIFNAAVIFHPHVSNLRDSKRVHSTQAKYFQMLLKLLTFEYGKSRADIAYSNLLNQVVELHRVNRTLLRVFYGLDIAQLDPLIRELCSFE,not soluble
17,MADKKAPAAGWPVANGEYVVGNPESCVAVITLGSHGLDQAAIDAGAAISGPCHTENLGIEKVVANYISNPNIRFMVIAGSEVQGHITGQCIKALYENGIGDDGGIIGAKGAIPFMENVGKEPVGRLQTQVVECIDLIDVEDKGKIADAIKNCISKDPGAFEEDPMVIELEGGAAAAGDESTSIKPTSPEMALLEARMRIVSEKMNEAAMIAKFNSGYYNGK,not soluble
18,MGSDKIHHHHHHACTGLLVGKKASTDGSVMISYAADSHSLYGEMYRWPAATWPKGAMLEVKEWDTGKPLGKIAQVENTYSVVGNMNEHQVAITESTFGGRHELVDTTGIMDYGSLIYIALQRSKSAREAIKVMTDLVKEYGYYSSGETFSIADKNEAWVMEMIGKGPGNKGAVWVAIRIPDDCISAHANQSRIQQIPFDDKENCIYSPDVVSFAREKGYFKGKDADFSFAKAYCPYDFSALRGCEARVWSFFRKYDTTMDQYTDFIKGDPSKEPMPLYVKPNRKLSVQDVQNGMRDHYEGTDLDMTKDAGAGSYKVPYRWRPMTFEVDGQEYTNERAIATQQTGFVIVPQMRNWLPDAIGGILWFAVDDADMAVFTPVYASVTDVPECYRVGNGDLLNFSWTSAFWIHNWVANMAYHKYSFMIQDIRKVQQELENGYQETVPAIDKAAQELYAKDPAETVKFLTWYSTTNSDSATARWKQLGEYLLVKYIDGNVKKEVNGQFKRNPYGQPASPDFPGYDEDYYRSIVKSAGDRLKVK,not soluble
19,MHNSTGRYVLGMEVMTPTGMNLDIATSVANADLARFDQVVGEDGIERFTFAKIEYTKESDLFEKTCELTANLLDSLLTQLPRS,not soluble
20,MLPPLPDFSLSVEQQFDLQKYRQQVRDISREDLEDLFIEVVRQKMAHENIFKGMIRQGS,soluble
21,MANSLRNVNDYDPFKYRPSYFDLEAPTESFALGKFVDAIEVKQMALDAFSESSMVSIATSQLPKTAYTATSFIESEYYSFPYLFNDQKYYWDYFDYKIPAADFAVLELELDLNNQQDQQIKDHFIDPAIKAYKQLGDSTGLFATKPLTEYQNDTHYLLGYPVVPTDHTQLWECKQGAERFSYGYFYSNMARLTKNLRQGDPNAGSKTHIEYSNELLDKDSMDQGIVRFSTFLGANINYHDYDYRQQGYGLTLTDTNLPGGSSGSLVFNQDKKISSIYSAATESDSVGYAQLLRTPRDVNGISVVSQSYDLIFGDSNTKRYYAMFAKKQQTHLYSEILKSTDEQYRYVVDKQFN,soluble
22,MGHHHHHHSHMTDFEDKQVANNETMEDAMNSVQEVSVGDIVKGEVLAIEDKQVVVGIEGAGVEGVVPAKELSTLPVEDVHELVKVGDVLDLVVITSIGKDKENGSYLLSKRRLDAKKVWEEIEQDFQAGKVIEAPVTNVVKGGLVVDVGVRGFVPASMVEDHFVADFSEYKGQTLAFKIIEIEPSENRLILSHKAVVEAEKESKKEELLSSLHDGDVVEGKVARLTDFGAFIDLGGVDGLVHVSEIAHQHVGKPSDALTVGEDVQVKILSINPEEGRISLSIKETLPGPWTDIETKAAAGTVLDGTVKRLTSFGAFVEVFPGVEGLVHISQISHKHIATPHEVLHEGDQVQVKVLEVNPEEHRIALSIKALEPKPESQEEPKEEQEYELPEENTGFTMGDILGDALSDAKEEE,soluble
23,MSFSERLLAAWYQGHPALALLRPLEALYRRVANGRRADFLSGRKPAYRAPLPVLVVGNITVGGTGKTPMILWMIEHCRARGLRVGVISRGYGARPPTTPWRVRAEQDAAEAGDEPLMIVRRSGVPLMIDPDRPRALQALLAEEQLDLVLCDDGLQHYRLARDLELVLIDAARGLGNGRCLPAGPLREPAERLESVDALLYNGADEDPDGGYAFRLQPTALINLQSGERRPLEHFPAGQEVHALAGIGNPQRFFRTLEALHWRAIPHAFPDHATYTAAELAFSPPLPLLMTEKDAVKCRAFAAADWWYLAVDAVPSPAFVAWFDARLEH,not soluble
24,MHIIDSHCHLNFEGLKERLPEVLSNMEANGVGQALAISVSRESFSEVFAVAEAHEHIYCTIGVHPDSREAEEFSIAEMVEAAAHPKVVGIGETGLDYYWCKGDLSWQHKRFADHIEAANQTGLPVIVHTRDAAADTLAILKECKTNSGVIHCFSEDTAFARAAMDLGLYISFSGIVTFKNAPLVQEAAKYVPDDRILVETDAPFLAPVPKRGRQNEPAFVRHTAEHIAKLRNQTLEQVAAYTTENFYRLFKKVPDMRAVLEHHHHHH,not soluble
